Tests used:
N-type calcium channels = N-type calcium channels (Mus musculus, UniProt O55017); assay type: cell-based, Swiss mice
IL-8RB = target: T1, IL-8RB (Homo sapiens, UniProt P25025); test: Competitive binding assay, IL-8/IL-8RB; settings: peptide at 10 μM
T1 sequence (P25025 1-360): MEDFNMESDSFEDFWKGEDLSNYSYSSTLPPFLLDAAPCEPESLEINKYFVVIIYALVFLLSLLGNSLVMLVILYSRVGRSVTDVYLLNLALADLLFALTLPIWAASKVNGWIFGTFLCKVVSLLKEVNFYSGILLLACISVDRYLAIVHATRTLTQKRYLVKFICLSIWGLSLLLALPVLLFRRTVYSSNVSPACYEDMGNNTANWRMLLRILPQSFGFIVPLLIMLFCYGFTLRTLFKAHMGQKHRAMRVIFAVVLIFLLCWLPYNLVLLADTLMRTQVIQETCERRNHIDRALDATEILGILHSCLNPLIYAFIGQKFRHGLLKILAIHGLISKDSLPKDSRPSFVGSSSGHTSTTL

Sequence	Ca^2+ current shown as a percentage (N-type calcium channels)	inhibition of N-type calcium channel activity (N-type calcium channels)	inhibition of IL-8/IL-8RB (IL-8RB)	frequency (use) dependence of block of Ca^2+ currents (N-type calcium channels)	voltage dependence of inhibition of Ca^2+ current (N-type calcium channels)
FGRKKRRQRRRKLSSIESDV (synthetic 1993 peptide F-Tat-NR2B9c) [Peptide 1993, variant in which the Y residue at position 1 of Tat-NR2B9c was mutated to F]	91+/−1.6%	no significant inhibition	–	–	–
YGRKKRRQRRRKLSSIESDV [Tat-NR2B9c] (Synthetic peptide Tat-NR2B9c) [chimeric peptide of a standard tat peptide and …]	68+/−1.7%	–	80%	not frequency dependent	voltage-independent manner

Source: patent US9365620B2, “Methods for treating pain” (NoNO NC., priority 2008, dated 2016)
